Assay results reported in patent US20130302250A1 (published 2013).

Tests used:
mouse serum albumin [1] = molecular target: T1, mouse serum albumin (mouse, UniProt P07724 25-608); test: SPR (BIAcore), pH 7.4
T1 construct: also called MSA; mouse albumin

rat serum albumin [2] = molecular target: T2, rat serum albumin (rat, UniProt P02770 25-608); test: SPR (BIAcore), pH 7.4
T2 construct: also called RSA; rat albumin

human serum albumin [3] = molecular target: T3, human serum albumin (human, UniProt P02768 25-609); test: SPR (BIAcore), pH 7.4
T3 construct: also called HSA; HAS

mouse serum albumin [4] = molecular target: T1, mouse serum albumin; test: SPR (BIAcore), pH 6.0
rat serum albumin [5] = molecular target: T2, rat serum albumin; test: SPR (BIAcore), pH 6.0
human serum albumin [6] = molecular target: T3, human serum albumin; test: SPR (BIAcore), pH 6.0

T2 sequence (P02770 25-608 limits assumed): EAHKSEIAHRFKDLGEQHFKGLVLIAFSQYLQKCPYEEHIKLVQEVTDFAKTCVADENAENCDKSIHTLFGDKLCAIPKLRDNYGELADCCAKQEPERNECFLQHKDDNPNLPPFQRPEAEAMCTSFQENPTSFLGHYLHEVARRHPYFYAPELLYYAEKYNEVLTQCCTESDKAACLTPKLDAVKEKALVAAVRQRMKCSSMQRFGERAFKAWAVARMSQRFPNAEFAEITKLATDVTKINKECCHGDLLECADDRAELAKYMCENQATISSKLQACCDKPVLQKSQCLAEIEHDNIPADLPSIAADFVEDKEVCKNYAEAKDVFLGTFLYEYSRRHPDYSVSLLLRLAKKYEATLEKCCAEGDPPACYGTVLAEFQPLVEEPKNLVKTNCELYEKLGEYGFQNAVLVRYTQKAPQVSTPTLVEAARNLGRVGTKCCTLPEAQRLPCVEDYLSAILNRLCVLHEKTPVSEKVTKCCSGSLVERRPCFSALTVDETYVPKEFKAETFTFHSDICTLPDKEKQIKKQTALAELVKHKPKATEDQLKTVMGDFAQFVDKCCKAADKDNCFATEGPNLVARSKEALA
T1 sequence (P07724 25-608 limits assumed): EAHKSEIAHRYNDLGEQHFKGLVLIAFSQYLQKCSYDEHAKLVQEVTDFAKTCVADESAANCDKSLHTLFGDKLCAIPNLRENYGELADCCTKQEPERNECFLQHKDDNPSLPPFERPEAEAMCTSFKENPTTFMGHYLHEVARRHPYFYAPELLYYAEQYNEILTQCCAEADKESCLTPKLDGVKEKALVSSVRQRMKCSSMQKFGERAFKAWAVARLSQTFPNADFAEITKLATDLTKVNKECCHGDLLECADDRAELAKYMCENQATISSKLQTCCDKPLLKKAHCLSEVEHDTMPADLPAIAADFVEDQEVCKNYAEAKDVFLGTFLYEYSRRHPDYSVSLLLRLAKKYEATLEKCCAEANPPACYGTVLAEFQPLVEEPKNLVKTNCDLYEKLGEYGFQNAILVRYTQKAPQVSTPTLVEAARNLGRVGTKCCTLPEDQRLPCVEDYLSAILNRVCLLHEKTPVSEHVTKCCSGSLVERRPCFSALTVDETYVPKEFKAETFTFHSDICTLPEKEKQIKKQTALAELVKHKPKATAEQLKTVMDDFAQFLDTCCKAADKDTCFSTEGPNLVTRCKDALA

| % Surface Active (mouse serum albumin [1]) [%] | % Surface Active (rat serum albumin [2]) [%] | % Surface Active (human serum albumin [3]) [%] | % Surface Active (mouse serum albumin [4]) [%] | % Surface Active (rat serum albumin [5]) [%] | % Surface Active (human serum albumin [6]) [%] | Binder |
| --- | --- | --- | --- | --- | --- | --- |
| 78.2 | 72.9 | 77.8 | 16.3 | 17.4 | 29 | huE06 v1.1 (VNAR, Humanized VNAR; also called humanized E06 variant 1.1) VNAR: TRVDQSPSSLSASVGDRVTITCVLTDTSYPLYSTYWYQQKPGSSNKEQISISGRYSESVNKGTKSFTLTISSLQPEDFATYYCRAMGTNIWTGDGAGTKVEIKH |
| 78.2 | 79.3 | 79.8 | 24.5 | 27.4 | 39.3 | huE06 v1.10 (VNAR, Humanized VNAR; also called hE06v1.10) VNAR: TRVDQSPSSLSASVGDRVTITCVLTDTSYPLYSTYWYRKNPGSSNKEQISISGRYSESVNKGTKSFTLTISSLQPEDFATYYCRAMGTNIWTGDGAGTKVEIKH |
| 85.2 | 88.4 | 85.3 | 34.2 | 39.5 | 49.6 | E06 (VNAR, Shark (Squalus acanthias) VNAR single domain, type IV; tested as monomeric 6xHis-tagged protein; also called E06-AAA-6xHis; VNAR clone E06) VNAR: TRVDQTPRTATRETGESLTINCVLTDTSYPLYSTYWYRKNPGSSNKEQISISGRYVESVNKGTKSFSLRIKDLTVADSATYICRAMGTNIWTGDGAGTVLTVNA |
